Assay results from article PMC5369232.
Values belong to the molecule of their own block, whether it stands above or below them.

Experiments:
[1] = target: fluorescence recovery protein (FRP, Slr1964) of Synechocystis sp. PCC 6803, His6-tagged (Synechocystis sp. PCC 6803) (UniProt P74103); test: native MS
[2] = target: T1, orange carotenoid protein (OCP) of Synechocystis sp. PCC 6803 (Synechocystis sp. PCC 6803), P74102; test: native MS; details: remark: other sources report otherwise
T1 chain: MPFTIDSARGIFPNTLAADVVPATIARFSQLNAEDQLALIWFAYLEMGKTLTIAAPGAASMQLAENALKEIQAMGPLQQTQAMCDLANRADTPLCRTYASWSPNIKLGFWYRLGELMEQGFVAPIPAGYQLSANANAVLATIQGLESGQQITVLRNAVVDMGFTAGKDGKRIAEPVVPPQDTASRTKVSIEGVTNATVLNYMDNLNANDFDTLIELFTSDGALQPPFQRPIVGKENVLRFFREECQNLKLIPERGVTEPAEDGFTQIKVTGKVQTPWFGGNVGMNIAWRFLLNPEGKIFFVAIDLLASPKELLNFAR

- stoichiometry N [1]: 2
Molecule: fluorescence recovery protein (FRP, Slr1964) of Synechocystis sp. PCC 6803, His6-tagged (from UniProt P74103 2-109) (natural protein)

- stoichiometry N [2]: 2
B1: orange carotenoid protein (OCP) of Synechocystis sp. PCC 6803, P74102 1-317 (natural protein)
chain: T1 chain
